The labels stand for the following.
B1: PTPRD (parent)
chain: ELDELLKEISRKRRSIRYGREVEL
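Further: lentivirally expressed fusions sorted by FACS into six bins by GFP to DsRed ratio, PSI derived from sequencing read proportions per bin multiplied by bin number.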

Variants of B1 are the subject of this series. The series is described as follows: protein stability index of a GFP-peptide fusion (GPS, HEK-293T) (PSI 1-6); higher = more stable. Conditions: c terminus: a fixed tail appended.
As to ELDELLKEPSRKRRSIRYGREVEL, the protein stability index was determined as 3.81. As for ELDELLKEISRKSRSIRYGREVEL, the figure is 3.25; as for ELDELLKEISRKHRSIRYGREVEL, 2.14. ELDELLKEISRKLRSIRYGREVEL: the protein stability index was 1.46. Consider ELDELLKEISRKPRSIRYGREVEL, for which the protein stability index stood at 3.3. As for ELDELLKEISRKYRSIRYGREVEL, the figure is 1.43; as for ELDELLKEISRKKRSIRYGREVEL, 2.54; as for ELDELLKEISRKFRSIRYGREVEL, 2.06. As for ELDELLKEISRKRRSIRYGRIVEL, the figure is 1.82; as for ELDELLKEISRKRRSIRYGRFVEL, 2.22; as for ELDELLKEISRKRRSIRYGRRVEL, 2.23. Turning to ELDELLKEISRKRRSIRYGRPVEL, the protein stability index is 2.71. As to ELDELLKEISRKRRSIRYGREVHL, the protein stability index turned out to be 2.51. As for ELDELLKEISRKRRSIRYGREVPL, the figure is 2.56; as for ELDELLKEISRKRRSIRYGREVCL, 1.96; as for ELDELLKEISRKRRSIRYGREVTL, 2.34. As for ELDELLKEISRKRRSIRYGREVRL, the figure is 2.17. As for ELDELLKEISRKRRSIRYGREVQL, the protein stability index amounted to 2.25. In the case of ELDELLKEISRKRRSIRYGREMEL, the protein stability index was determined as 2.85.

ELDELLKEISRKRRSIRYGRESEL: the protein stability index came to 2.79.

As for ETDELLKEISRKRRSIRYGREVEL, the protein stability index is 3.38. EGDELLKEISRKRRSIRYGREVEL: the protein stability index is 3.58. EKDELLKEISRKRRSIRYGREVEL: the protein stability index stood at 4.09. On to ESDELLKEISRKRRSIRYGREVEL, for which the protein stability index turned out to be 2.99. For the variant ERDELLKEISRKRRSIRYGREVEL, the protein stability index was 3.71. Turning to ELDELLKFISRKRRSIRYGREVEL, the protein stability index worked out at 2. Take ELDELLKAISRKRRSIRYGREVEL: the protein stability index is 1.68. For the variant ELDELLKSISRKRRSIRYGREVEL, the protein stability index turned out to be 2.45. In the case of ELDELLKYISRKRRSIRYGREVEL, the protein stability index amounted to 1.88. As to ELDELLKIISRKRRSIRYGREVEL, the protein stability index turned out to be 2.83. Under ELDELLKHISRKRRSIRYGREVEL stands 1.99; under ELDELLKQISRKRRSIRYGREVEL, 2.81. As to ELDELLKCISRKRRSIRYGREVEL, the protein stability index was 1.83. As to ELDELLKPISRKRRSIRYGREVEL, the protein stability index was determined as 2.77.

As for ELDELLKLISRKRRSIRYGREVEL, the protein stability index was determined as 2.03. With ELDELLKEIDRKRRSIRYGREVEL, the protein stability index was found to be 2.87. As for ELDELLKEIRRKRRSIRYGREVEL, the protein stability index was 2.48. For ELDELLKEILRKRRSIRYGREVEL, the protein stability index was 1.41. Regarding ELDELLKEIQRKRRSIRYGREVEL, the protein stability index came out at 2.2. For the variant ELDELLKEISRKRRGIRYGREVEL, the protein stability index was determined as 2.44. Under ELDELLKEISRKRRSIRYEREVEL stands 2.71; under ELDELLKEISRKRRSIRYMREVEL, 2.41. In the case of ELDELLKEISRKRRSIRYDREVEL, the protein stability index is 2.22. For the variant ELDELLKEISRKRRSIRYPREVEL, the protein stability index turned out to be 2.17. As to ELDELLKEISRKRRSIRYCREVEL, the protein stability index worked out at 2.7. For the variant ELDELLKEISRKRRSIRYNREVEL, the protein stability index was 2.47. Under ELDELLKEISRKRRSIRKGREVEL stands 2.46; under ELDELLKEISRKRRSIRWGREVEL, 1.84; under ELDELLKEISRKRRSIRMGREVEL, 2.22. As to ELDELLKEISRKRRSIRCGREVEL, the protein stability index worked out at 1.67. As for ELDELLKEISRKRRSIRAGREVEL, the figure is 2.13; as for ELDELLKEISRKRASIRYGREVEL, 2.02; as for ELDELLKEISRKRPSIRYGREVEL, 2.64. In the case of ELDELLKEISRKRNSIRYGREVEL, the protein stability index was determined as 2.1.

On to ELDELLKEISRKRVSIRYGREVEL, for which the protein stability index worked out at 2.42. For the variant ELDELLKEISRKRWSIRYGREVEL, the protein stability index worked out at 1.73. Take ELDELLKEISRKRESIRYGREVEL: the protein stability index came to 2.73. For ELDELLKEISRKRRSITYGREVEL, the protein stability index was 2.15.

In the case of ELDELLKEISRKRRSIHYGREVEL, the protein stability index came to 2.06. As for ELDELLKEISRKRRSINYGREVEL, the figure is 2.75. As for ELDELLKEISRKRRSIAYGREVEL, the protein stability index was 2.39. Consider ELDELLKEISRKRRSIMYGREVEL, for which the protein stability index came out at 2.12.

As to ELDELLCEISRKRRSIRYGREVEL, the protein stability index was found to be 2.33. Take ELDELLLEISRKRRSIRYGREVEL: the protein stability index is 2.72. For the variant ELDELLWEISRKRRSIRYGREVEL, the protein stability index was determined as 2.19. For VLDELLKEISRKRRSIRYGREVEL, the protein stability index is 1.93. Take WLDELLKEISRKRRSIRYGREVEL: the protein stability index is 2.69.

As for FLDELLKEISRKRRSIRYGREVEL, the protein stability index was determined as 1.83.

On to RLDELLKEISRKRRSIRYGREVEL, for which the protein stability index was determined as 2.17. In the case of GLDELLKEISRKRRSIRYGREVEL, the protein stability index was found to be 2.52. Consider ELDELLKEISRKRRSIRYGVEVEL, for which the protein stability index came out at 1.8. On to ELDELLKEISRKRRSIRYGEEVEL, for which the protein stability index was determined as 2.71. In the case of ELDELLKEISRKRRSIRYGFEVEL, the protein stability index amounted to 1.64.

Regarding ELDELLKEISRKRRSIRYGTEVEL, the protein stability index turned out to be 2.45. As for ELDELLKEISRKRRSIRYGDEVEL, the protein stability index is 3.33. On to ELDEKLKEISRKRRSIRYGREVEL, for which the protein stability index came out at 3.61. In the case of ELDELLKEISRKRRSIRYGREVEG, the protein stability index was found to be 2.5. ELDELLKEISRKRRSIRYGREVEQ: the protein stability index amounted to 2.32.

On to ELDELTKEISRKRRSIRYGREVEL, for which the protein stability index was 3.92.

Regarding ELDELYKEISRKRRSIRYGREVEL, the protein stability index amounted to 2.71. As for ELGELLKEISRKRRSIRYGREVEL, the protein stability index was found to be 1.67.

In the case of ELHELLKEISRKRRSIRYGREVEL, the protein stability index amounted to 2.48. Turning to ELKELLKEISRKRRSIRYGREVEL, the protein stability index stood at 2.38. Turning to ELYELLKEISRKRRSIRYGREVEL, the protein stability index amounted to 2.12. Regarding ELDELLKEISRKRRSHRYGREVEL, the protein stability index came to 2.37. Consider ELDELLKEISRKRRSQRYGREVEL, for which the protein stability index is 3.12.

In the case of ELDELLKEISRPRRSIRYGREVEL, the protein stability index was 2.53. As for ELDELLKEISNKRRSIRYGREVEL, the figure is 2.34; as for ELDELLKEISDKRRSIRYGREVEL, 4.06. ELDELLKEISTKRRSIRYGREVEL: the protein stability index is 3.21. Take ELDELLKEISIKRRSIRYGREVEL: the protein stability index is 2.45.

On to ELDVLLKEISRKRRSIRYGREVEL, for which the protein stability index worked out at 1.94.

In the case of ELDQLLKEISRKRRSIRYGREVEL, the protein stability index came to 1.99. As for ELDWLLKEISRKRRSIRYGREVEL, the figure is 2.29.
